Experimental findings from patent US20170304442A1 (SORRENTO THERAPEUTICS, published 2017) are described below.

The Kd is the free concentration of one partner at which half of the binding sites on the other are occupied at equilibrium, for simple one-to-one binding. As usually defined, the koff is a measure of how fast the partners let go of each other. By kon is commonly meant the rate constant with which the complex forms.

In experiment [1] the target is T1, recombinant human WISP1/His (human, UniProt O95388 23-367).
T1 construct: also called hWISP1; recombinant human WISP1 protein; not shown: His tag
T1 sequence (looked up): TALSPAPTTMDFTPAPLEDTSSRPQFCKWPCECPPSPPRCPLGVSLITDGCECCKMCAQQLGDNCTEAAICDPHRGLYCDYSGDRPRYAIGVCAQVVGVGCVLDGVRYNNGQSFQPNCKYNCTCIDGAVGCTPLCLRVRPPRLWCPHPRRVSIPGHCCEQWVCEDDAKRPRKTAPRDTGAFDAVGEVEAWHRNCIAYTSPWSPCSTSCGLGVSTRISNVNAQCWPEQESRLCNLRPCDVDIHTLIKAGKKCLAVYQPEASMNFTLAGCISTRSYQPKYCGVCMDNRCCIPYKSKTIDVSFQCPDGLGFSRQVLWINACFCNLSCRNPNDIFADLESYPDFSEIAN
The experiment in a line: ELISA screening. A general note: In an ELISA, binding on a coated surface is turned into a signal by an enzyme label.

Experiment [2] concerns the target T2, recombinant mouse WISP1/His (mouse, UniProt O54775 23-367).
T2 construct: also called murine WISP1; mWISP1; not shown: His tag
T2 sequence (looked up): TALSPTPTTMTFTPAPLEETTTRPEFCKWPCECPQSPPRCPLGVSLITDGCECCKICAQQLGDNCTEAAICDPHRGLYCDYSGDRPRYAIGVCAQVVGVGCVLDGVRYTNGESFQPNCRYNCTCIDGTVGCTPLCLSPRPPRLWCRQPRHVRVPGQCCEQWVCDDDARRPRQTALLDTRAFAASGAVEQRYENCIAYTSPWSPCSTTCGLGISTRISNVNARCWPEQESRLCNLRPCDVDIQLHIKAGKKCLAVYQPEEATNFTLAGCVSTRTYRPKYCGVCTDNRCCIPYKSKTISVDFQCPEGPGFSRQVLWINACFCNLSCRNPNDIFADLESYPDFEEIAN
The experiment in a line: ELISA screening.

Experiment [3] deals with T1, recombinant human WISP1/His. The experiment in a line: SPR, IgG captured on anti-human Fc CM5 chip, human WISP1/His as analyte, 1:1 Langmuir fit. The protocol: This example illustrates binding affinities of various anti-WISP-1 antibodies disclosed herein. Briefly, Anti-human Fc antibody (GE, BR-1008-39) was immobilized on CM5 sensor chip to approximately 1000 RU using standard NHS/EDC coupling methodology. Antibodies (about 10 μg/ml) were captured for 60 s at a flow rate 10 μl/min. Recombinant human WISP1/His was serially diluted in running buffer (HBS-EP). All measurements were conducted with a flow rate of 30 μL/min. Surfaces were regenerated with 3M MgCl2 for 60 s. A 1:1 (Langmuir) binding model was used to fit the data.
For orientation: Surface plasmon resonance follows binding to a sensor surface in real time, without labels.

B1: WIr2B9 (antibody, V domains shown)
VH: QVQLVQSGAEVKKPGSSVKVSCKASGGTFNNYNINWVRQAPGQGFEWMGRIVPMLGVPKYAQKFQGRVTISADMSTSTAYMELRSLRSDDTAMYYCARGEDLDPWGQGTLVTVS
VL: SYELMQPASVSGSPGQSITISCTGTSSDVGGYNYVSWYQQHPGKAPKLMIYDVSKRPSGVSNRFSGSKSGNTASLTISGLQAEDEADYYCSSYTSSSPYVFGTGTKVTVL
notes: Fully human IgG; also called Wlr2B9
For the molecule B1, the binding result in experiment [1] and in experiment [2] was “binds” in each case.

B2: WIr2H2 (antibody, V domains shown)
VH: EVQLVQSGADVKKPGASVKVSCQASGYTLTSYDIHWMRQAPGQGLEWMGWINPNSGNTGYAEKFQGRVAMTSHTSTSTVYMELSRLTSEDTAVYYCARGAMGGFDPWGQGTLVTVSS
VL: DIQMTQSPSSVSASVGDRVTITCRASQDISRWLAWYQQKPGKAPKLLIYAASTLQSGVPSRFSGSGSGTDFTLTISSLQPEDFATYYCQQANTFPITFGQGTRLEIK
notes: Fully human IgG; also called Wlr2H2
Take B2: the binding result in experiment [1] and in experiment [2] was “binds” throughout.

B3: WIr2B8 (antibody, V domains shown)
VH: EVQLVQSGAEVKKPGSSVKVSCKASGGTFSSYAISWVRQAPGQGLEWMGGIIPIFGTANYAQKFQGRVTITADESTSTAYMELSSLRSEDTAVYYCARGQPFRDSSGYYWSYFDYWGQGTLVTVSS
VL: SYELTQPPSVSKDLRQTATLTCTGNSNNVGNQGAAWLQQHQGHPPKLLSDRNNNRPSGISERLSASRSENIASLTITGLQPEDEADYFCAAWDTSLNTFLFGGGTKLTVL
notes: Fully human IgG; also called Wlr2B8
In the case of B3, the binding result in experiment [1] and in experiment [2] was “binds” each time.

B4: WIr2E4 (antibody, V domains shown)
VH: QVQLQQSGAEVKKPGASVKVSCKVSGYTLTELSMHWVRQAPGKGLEWMGGFDPEDGETIYAQKFQGRVTMTEDTSTDTAYMELSSLRSEDTAVYYCATDRWWERTTWGAFDIWGQGTMVTVSS
VL: QSVLTQPASVSGSPGQSITISCIGTGSAAVSWYQQHPGKAPKLIIYDVNNRPSGVSARFSGSKSDNTASLTISGLQAEDEGDYYCSTYGAGSTWVFGGGTKLTVL
notes: Fully human IgG; also called Wlr2E4
B4: the binding result in experiment [1] and in experiment [2] was “binds” in each case.

B5: WIr2H4 (antibody, V domains shown)
VH: EVQLVESGGDLVQPGGSLRLSCAASGFTLNSRDMHWVRQSTRTGLEWVAAISIAGDTYYPLSVRGRFTISRDTAKSSLYLQMNSLTDGDTAVYYCVRGRHFDGYKSVFFDSWGQGTLVTVSS
VL: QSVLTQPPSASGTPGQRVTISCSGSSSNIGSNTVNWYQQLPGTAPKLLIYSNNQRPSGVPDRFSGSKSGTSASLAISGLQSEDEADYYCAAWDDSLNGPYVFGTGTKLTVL
notes: Tested as IgG (captured by anti-human Fc); also called Wlr2H4
With B5, in experiment [3], the Kd turned out to be 0.631 nM, the koff is 0.00025 s⁻¹ and the kon turned out to be 396000 M⁻¹ s⁻¹. For the same molecule, the binding result in experiment [2] was “binds”.

B6: WIr2F6 (antibody, V domains shown)
VH: QMQLVQSGAEVKRPGASVKVSCKASGYSFTNFDINWVRQATGQGLEWMGWMDPNSGNSGSAPAFQGRVTMTRDTSIGTAYMELSGLTSEDTAVYYCARDDFYDSSGFDAWGQGTLVTVSS
VL: QSVLTQPPSASGTPGQTVTVSCSGRSSNVGSNTVDWYQHLPGTAPKLLIYSSNRRPSGVPDRFSGSKSGTSASLAISGLQSEDEADYYCAAWDDSLNVYVFGTGTKLTVL
notes: Tested as IgG (captured by anti-human Fc); also called Wlr2F6
For B6, in experiment [3], the Kd is 10.1 nM, the koff is 0.00559 s⁻¹ and the kon came to 554000 M⁻¹ s⁻¹. For the same molecule, the binding result in experiment [2] is listed as “binds”.

B7: WIr2D10 (antibody, V domains shown)
VH: QVQLVESGGGVVQPGRSLRLSCGASGFTFSRFAMHWVRQAPGKGLEWVTVTSFDGSEIYYADSVKGRFTISRDNSKNTLYLQMNSLRVDDTAVYFCARDALGSIDYWGQGTLVTVSS
VL: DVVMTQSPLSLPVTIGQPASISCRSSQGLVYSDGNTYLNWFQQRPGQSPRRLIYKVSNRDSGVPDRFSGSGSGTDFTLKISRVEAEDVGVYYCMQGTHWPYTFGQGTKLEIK
notes: Fully human IgG; also called Wlr2D10
With B7, the binding result in experiment [1] and in experiment [2] was “binds” throughout.

B8: WIr2D9 (antibody, V domains shown)
VH: QVQLVQSGAEVKKPGASVKVSCKVSGYTLTELSMHWVRQAPGKGLEWMGGFDPEDGETIYAQKFQGRVTMTEDTSTDTAYMELSSLRSEDTAVYYCATEGWFGELSPVYWGQGTLVTVSS
VL: AIQLTQSPSSLSASVGDRVTITCRASQDIRNDLGWYQQKPGRAPQRLIYTTSTLQSGVPSRFSGSGSGTEFTLTISSLQPEDFATYYCLQHNTYPWTFGQGTRLEIK
notes: Fully human IgG; also called Wlr2D9
With B8, the binding result in experiment [1] and in experiment [2] was “binds” in each case.

B9: WIr2H3 (antibody, V domains shown)
VH: EVQLVQSGGGMVQPGGSLRLSCAASGFTFSDYYMDWVRQAPGQGLEWVGRIRHKAQGYTTEYAASVKGRFSISRDDSRSSLSLQMNSLKTEDTAVYYCAMVGGSRDWGQGTLVTVSS
VL: QAGLTQPPSVSGAPGQRVTISCTGGSSNIGPGYAVHWYQQHPGRAPKLLIYTNNNRPSGVPDRFSGSRSGTSASLAITGLQAEDDAYYYCQSYDSSLSGSVFGGGTKLTVL
notes: Tested as IgG (captured by anti-human Fc); also called Wlr2H3
For B9, in experiment [3], the Kd was determined as 95.9 nM, the koff was found to be 0.00897 s⁻¹ and the kon was found to be 93500 M⁻¹ s⁻¹. The binding result in experiment [2] is “binds”.

B10: WIr2D3 (antibody, V domains shown)
VH: QVQLVQSGGGLVQPGRSLRLSCAASGFTFSSYGMHWVRQAPGKGLEWVAVISYDGSNKYYADSVKGRFTISRDNSKNTLYLQMNSLRAEDTAVYYCFDDYVDYWGQGTLVTVSS
VL: DIVMTQTPSSLSASVGDRVTITCRASQGISNYLAWYQQKPGKAPKLLIYAASSLQSGVPSRFSGSGSGTDFTLTISSLRPEDFATYYCLQDYSFPLTFGGGTKVEIK
notes: Fully human IgG; also called Wlr2D3
Turning to B10, the binding result in experiment [1] and in experiment [2] was “binds” in each case.

B11: WIr2D6 (antibody, V domains shown)
VH: EVQLVQSGAEVKRSGASVKVSCKLSGDTLTDLSIHWVRQAPGKGLEWMGGFDFEDGEIVYGDKFKGRVTVTEDPSTDTAYMDLKRLTFEDTAIYYCATIKDIPGRYYFDFWGQGTLVTVSS
VL: VIWMTQSPSSVSASVGDTVTITCRASQGIRSWLAWYQQKPGKAPKLLIYGASSLHSGVPSRFSGSGSGTYFTLTISSLQPEDFATYYCQQADSFPPWTFGQGTKVEIK
notes: Tested as IgG (captured by anti-human Fc); also called Wlr2D6
Consider B11, for which, in experiment [3], the Kd amounted to 53.9 nM, the koff turned out to be 0.0489 s⁻¹ and the kon worked out at 907000 M⁻¹ s⁻¹. Further, in experiment [2], the binding result is “binds”.

B12: WIr2G7 (antibody, V domains shown)
VH: QVQLVQSGAEVKKPGASVKVSCKASGYTFTSYDINWVRQATGQGPEWLGWLNPGSGKTGNAQNFQGRVFMTWDTSKDTAYMEMSSLRSDDTAVYYCARNLDYWGQGTLVTVSS
VL: DIVMTQTPLSLPVTLGQPASISCRSSQSLVYSDGNTYLSWLQQRPGQPPRVLINQISNRFSGVPDRFSGSGAGTDFTLKISRVEAEDVGVYYCMQATQFPVTFGGGTKVEIK
notes: Fully human IgG; also called Wlr2G7
For the molecule B12, the binding result in experiment [1] and in experiment [2] was “binds” in each case.

B13: WIr2G8 (antibody, V domains shown)
VH: QVQLVQSGAEVQKPGASVKVSCKASGYRFINNDIHWVRQATGQGLEWMGWMDPNNGKTGYAQKFQGRVTMTRDTSISTAYMELSSLRSEDTGVYYCVRGIIAAAGGGWGQGTLVTVSS
VL: DVVMTQSPSTLSASVGDRATITCRASQSVDTWLAWYQQKPGKAPHVLIYKASNLNSGVPSRFSGSGSGTEFTLTISSLQPDDFATYYCQQYKTWWTFGQGTKVEIK
notes: Fully human IgG; also called Wlr2G8
Consider B13, for which the binding result in experiment [1] and in experiment [2] was “binds” in each case.

B14: WIr2D5 (antibody, V domains shown)
VH: EVQLVESGAEVKKPGASVKVSCKASGYTFTSYGISWVRQAPGQGLEWMGWISAYNGNTNYAQKLQGRVTMTTDTSTSTAYMELRSLRSDDTAVYYCARVRVFEYSSLMDVWGQGTTVTVSS
VL: AIQMTQSPSSLSASVGDRVTITCQASQDISNYLNWYQQKPGKAPKLLIYDASNLETGVPSRFSGSGSGTDFTFTISSLQPEDIATYYCQQHDNLPITFGQGTRLEIK
notes: Fully human IgG; also called Wlr2D5
Regarding B14, the binding result in experiment [1] and in experiment [2] was “binds” each time.
